Experiment [1] addresses Human ICOS (human) (UniProt Q9Y6W8). Briefly: in vivo target engagement, flow cytometry on human peripheral blood CD4+ T cells, 0.1 mg/kg, Day 42, average of three subjects.
The target is the same in experiment [2]. The experiment is described as follows: in vivo target engagement, flow cytometry on human peripheral blood CD4+ T cells, average of three subjects after first i.v. dose of 0.1 mg/kg. For orientation: Flow cytometry measures light scatter and fluorescence of single cells or particles in a stream.
For experiment [3] the target is unchanged. The experiment is described as follows: in vivo target engagement, flow cytometry on human peripheral blood CD4+ T cells, 0.1 mg/kg, Day 42.

Results on 1 substance are retold here after patent US20220135682A1.

Bounds are passed on as bounds.

Human ICOS (human), sequence (Q9Y6W8 21-199): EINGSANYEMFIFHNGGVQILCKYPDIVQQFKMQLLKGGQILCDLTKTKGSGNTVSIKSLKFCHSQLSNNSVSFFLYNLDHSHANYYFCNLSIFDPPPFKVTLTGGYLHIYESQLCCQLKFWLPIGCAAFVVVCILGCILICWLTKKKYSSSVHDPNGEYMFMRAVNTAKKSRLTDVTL

For JTX-2011 (antibody), the figures for the target engagement in experiment [1], in experiment [2] and in experiment [3] were 10%, 100% and less than 40%, respectively.
